Laboratory results reported in patent US20160297884A1 (Pfizer, published 2016).

T1: Human BCMA (human, UniProt Q02223 1-54, limits assumed)
T1 construct: Soluble analyte in SPR; construct not described; also called huBCMA; B-cell maturation antigen
T1 sequence (looked up): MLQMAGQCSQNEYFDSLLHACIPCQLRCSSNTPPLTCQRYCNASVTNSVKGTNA


Legend:
Human BCMA [1] = target: T1, Human BCMA; test: SPR, IgG immobilised, 25 C
Protocol: (§1) All experiments were performed on a Bio-Rad Proteon XPR36 surface Plasmon resonance biosensor (Bio-Rad, Hercules, Calif.). […] The analysis temperature for the immobilization was 25° C. and the running buffer was HBS-T+(10 mM HEPES, 150 mM NaCl, 0.05% Tween-20, pH 7.4). Channels were activated in the analyte (horizontal) direction by injecting a mixture of 1 mM ECD and 0.25 mM NHS for 3 minutes at a flow rate of 30 μL/min. IgGs were immobilized on the activated spots by injecting them in the ligand (vertical) direction at 20 μg/mL in 10 mM Acetate pH 4.5 buffer for 1.5 minutes at […]. The activated surfaces were blocked by injecting 1M ethanolamine, pH 8.5 in the analyte direction for 3 minutes at 30 μL/min.
(§2) The analysis temperature for the BCMA binding analysis was 37° C. or 25° C. in a running buffer of HBS-T+, supplemented with 1 mg/mL BSA. A kinetic titration method was employed for the interaction analysis as described in Abdiche, et al. Human BCMA (huBCMA) or cynomolgus monkey BCMA (cyBCMA) analyte was injected in the analyte direction using a series of injections from low to high concentration. The concentrations used were 0.08 nM, 0.4 nM, 2 nM, 10 nM and 50 nM (a 5-membered series, with a 5-fold dilution factor and top concentration of 50 nM). The association time for a given analyte dilution was two minutes. Immediately after the 50 nM BCMA injection, dissociation was monitored for 2 hours.
(§3) The sensorgrams were double-referenced and fit to a 1:1 Langmuir with mass transport kinetic titration model in BIAevaluation Software version 4.1.1 (GE Lifesciences, Piscataway, N.J.).

cynomolgus monkey BCMA [2] = target: T2, cynomolgus monkey BCMA (cynomolgus monkey, UniProt A0A2K5UD97 1-53); test: SPR, IgG immobilised, 25 C
T2 construct: Soluble analyte in SPR; construct not described; also called cyBCMA; Cyno BCMA
Protocol: as §1, §2, §3

Human BCMA [3] = target: T1, Human BCMA; test: SPR, IgG immobilised, 37 C
How it was run: (§4)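 Binding was run at 37° C or 25° C with species-specific BCMA (human or cyno) flowed over immobilized IgG in a single-cycle series of 0.08, 0.4, 2, 10, 50 nM.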

cynomolgus monkey BCMA [4] = target: T2, cynomolgus monkey BCMA; test: SPR, IgG immobilised, 37 C
How it was run: as §4

T2 sequence (A0A2K5UD97 entry or part of it): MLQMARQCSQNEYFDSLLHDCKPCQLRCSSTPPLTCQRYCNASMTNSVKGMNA

Binder | Kd (Human BCMA [1]) | T ½ (Human BCMA [1]) | koff (Human BCMA [1]) | kon (Human BCMA [1]) | Kd (cynomolgus monkey BCMA [2]) | T ½ (cynomolgus monkey BCMA [2]) | koff (cynomolgus monkey BCMA [2]) | kon (cynomolgus monkey BCMA [2]) | Kd (Human BCMA [3]) | T ½ (Human BCMA [3]) | koff (Human BCMA [3]) | kon (Human BCMA [3]) | Kd (cynomolgus monkey BCMA [4]) | T ½ (cynomolgus monkey BCMA [4]) | koff (cynomolgus monkey BCMA [4]) | kon (cynomolgus monkey BCMA [4])
L1.GDF/L3.KW/H3.AL (antibody, V domains shown, IgG) VH: EVQLLESGGGLVQPGGSLRLSCAASGFTFGSYAMTWVRQAPGKGLEWVSAISGSGGNTFYADSVKGRFTISRDNSKNTLYLQMNSLRAEDTAVYYCARVSPIAALMDYWGQGTLVTVSS VL: EIVLTQSPGTLSLSPGERATLSCRASQSVGDFYLAWYQQKPGQAPRLLIYGASSRATGIPDRFSGSGSGTDFTLTISRLEPEDFAVYYCKHYGWPPSFTFGQGTKVEIK | 8.76 nM | 2.96 min | 0.0039 s⁻¹ | 445000 M⁻¹ s⁻¹ | 56.7 nM | 0.6 min | 0.018 s⁻¹ | 318000 M⁻¹ s⁻¹ | – | – | – | – | – | – | – | –
L3.PY/L3.KF/P6E01 (antibody, V domains shown, IgG) VH: EVQLLESGGGLVQPGGSLRLSCAASGFTFGSYAMTWVRQAPGKGLEWVSAISGSGGNTFYADSVKGRFTISRDNSKNTLYLQMNSLRAEDTAVYYCARVSPIASGMDYWGQGTLVTVSS VL: EIVLTQSPGTLSLSPGERATLSCRASQSVSSSYLAWYQQKPGQAPRLLIYGASSRATGIPDRFSGSGSGTDFTLTISRLEPEDFAVYYCKFYPYPPSFTFGQGTKVEIK | – | – | – | – | – | – | – | – | 0.72 nM | 5.56 min | 0.00208 s⁻¹ | 2.88e+06 M⁻¹ s⁻¹ | 3.48 nM | 1.39 min | 0.0083 s⁻¹ | 2.39e+06 M⁻¹ s⁻¹
P6E01/H3.AQ (antibody, V domains shown, IgG) VH: EVQLLESGGGLVQPGGSLRLSCAASGFTFGSYAMTWVRQAPGKGLEWVSAISGSGGNTFYADSVKGRFTISRDNSKNTLYLQMNSLRAEDTAVYYCARVSPIAAQMDYWGQGTLVTVSS VL: not shown | 0.41 nM | 33.5 min | – | – | – | – | – | – | – | – | – | – | – | – | – | –
L3.PY/L1.PS/H3.YA (antibody, V domains shown, IgG) VH: EVQLLESGGGLVQPGGSLRLSCAASGFTFGSYAMTWVRQAPGKGLEWVSAISGSGGNTFYADSVKGRFTISRDNSKNTLYLQMNSLRAEDTAVYYCARVSPIYAGMDYWGQGTLVTVSS VL: EIVLTQSPGTLSLSPGERATLSCRASQSVSSSYPSWYQQKPGQAPRLLIYGASSRATGIPDRFSGSGSGTDFTLTISRLEPEDFAVYYCQHYPYPPSFTFGQGTKVEIK | – | – | – | – | – | – | – | – | 2.95 nM | 1.28 min | 0.00905 s⁻¹ | 3.07e+06 M⁻¹ s⁻¹ | 5.65 nM | 1.16 min | 0.00998 s⁻¹ | 1.77e+06 M⁻¹ s⁻¹
P6E01/P6E01 (antibody, V domains shown, IgG) VH: EVQLLESGGGLVQPGGSLRLSCAASGFTFGSYAMTWVRQAPGKGLEWVSAISGSGGNTFYADSVKGRFTISRDNSKNTLYLQMNSLRAEDTAVYYCARVSPIASGMDYWGQGTLVTVSS VL: not shown | 4 nM | 2.8 min | – | – | – | – | – | – | – | – | – | – | – | – | – | –
L1.GDF/L3.NY/H3.AL (antibody, V domains shown, IgG) VH: EVQLLESGGGLVQPGGSLRLSCAASGFTFGSYAMTWVRQAPGKGLEWVSAISGSGGNTFYADSVKGRFTISRDNSKNTLYLQMNSLRAEDTAVYYCARVSPIAALMDYWGQGTLVTVSS VL: EIVLTQSPGTLSLSPGERATLSCRASQSVGDFYLAWYQQKPGQAPRLLIYGASSRATGIPDRFSGSGSGTDFTLTISRLEPEDFAVYYCQHYNYPPSFTFGQGTKVEIK | 4.44 nM | 2.87 min | 0.00403 s⁻¹ | 907000 M⁻¹ s⁻¹ | 24.3 nM | 0.5 min | 0.0219 s⁻¹ | 900000 M⁻¹ s⁻¹ | – | – | – | – | – | – | – | –
L1.GDF/L3.KW/H3.AQ (antibody, V domains shown, IgG) VH: EVQLLESGGGLVQPGGSLRLSCAASGFTFGSYAMTWVRQAPGKGLEWVSAISGSGGNTFYADSVKGRFTISRDNSKNTLYLQMNSLRAEDTAVYYCARVSPIAAQMDYWGQGTLVTVSS VL: EIVLTQSPGTLSLSPGERATLSCRASQSVGDFYLAWYQQKPGQAPRLLIYGASSRATGIPDRFSGSGSGTDFTLTISRLEPEDFAVYYCKHYGWPPSFTFGQGTKVEIK | 4.37 nM | 3.32 min | 0.00348 s⁻¹ | 797000 M⁻¹ s⁻¹ | 7 nM | 2 min | 0.00565 s⁻¹ | 802000 M⁻¹ s⁻¹ | – | – | – | – | – | – | – | –
L3.PY/L1.PS/H3.TAQ (antibody, V domains shown, IgG) VH: EVQLLESGGGLVQPGGSLRLSCAASGFTFGSYAMTWVRQAPGKGLEWVSAISGSGGNTFYADSVKGRFTISRDNSKNTLYLQMNSLRAEDTAVYYCTRVSPIAAQMDYWGQGTLVTVSS VL: EIVLTQSPGTLSLSPGERATLSCRASQSVSSSYPSWYQQKPGQAPRLLIYGASSRATGIPDRFSGSGSGTDFTLTISRLEPEDFAVYYCQHYPYPPSFTFGQGTKVEIK | – | – | – | – | – | – | – | – | 0.76 nM | 4.7 min | 0.00246 s⁻¹ | 3.25e+06 M⁻¹ s⁻¹ | 2.14 nM | 2.09 min | 0.00552 s⁻¹ | 2.58e+06 M⁻¹ s⁻¹
L1.GDF/L3.NY/H3.AP (antibody, V domains shown, IgG) VH: EVQLLESGGGLVQPGGSLRLSCAASGFTFGSYAMTWVRQAPGKGLEWVSAISGSGGNTFYADSVKGRFTISRDNSKNTLYLQMNSLRAEDTAVYYCARVSPIAAPMDYWGQGTLVTVSS VL: EIVLTQSPGTLSLSPGERATLSCRASQSVGDFYLAWYQQKPGQAPRLLIYGASSRATGIPDRFSGSGSGTDFTLTISRLEPEDFAVYYCQHYNYPPSFTFGQGTKVEIK | 1 nM | 8.21 min | 0.00141 s⁻¹ | 1.41e+06 M⁻¹ s⁻¹ | 5.2 nM | 1.6 min | 0.00702 s⁻¹ | 1.36e+06 M⁻¹ s⁻¹ | – | – | – | – | – | – | – | –
L3.PY/L1.PS/P6E01 (antibody, V domains shown, IgG) VH: EVQLLESGGGLVQPGGSLRLSCAASGFTFGSYAMTWVRQAPGKGLEWVSAISGSGGNTFYADSVKGRFTISRDNSKNTLYLQMNSLRAEDTAVYYCARVSPIASGMDYWGQGTLVTVSS VL: EIVLTQSPGTLSLSPGERATLSCRASQSVSSSYPSWYQQKPGQAPRLLIYGASSRATGIPDRFSGSGSGTDFTLTISRLEPEDFAVYYCQHYPYPPSFTFGQGTKVEIK | – | – | – | – | – | – | – | – | 0.45 nM | 10.2 min | 0.00113 s⁻¹ | 2.49e+06 M⁻¹ s⁻¹ | 2.79 nM | 1.91 min | 0.00606 s⁻¹ | 2.17e+06 M⁻¹ s⁻¹
L1.GDF/L3.KW/H3.AP (antibody, V domains shown, IgG) VH: EVQLLESGGGLVQPGGSLRLSCAASGFTFGSYAMTWVRQAPGKGLEWVSAISGSGGNTFYADSVKGRFTISRDNSKNTLYLQMNSLRAEDTAVYYCARVSPIAAPMDYWGQGTLVTVSS VL: EIVLTQSPGTLSLSPGERATLSCRASQSVGDFYLAWYQQKPGQAPRLLIYGASSRATGIPDRFSGSGSGTDFTLTISRLEPEDFAVYYCKHYGWPPSFTFGQGTKVEIK | 3.93 nM | 2.51 min | 0.00461 s⁻¹ | 1.17e+06 M⁻¹ s⁻¹ | 24.9 nM | 0.6 min | 0.0203 s⁻¹ | 814000 M⁻¹ s⁻¹ | – | – | – | – | – | – | – | –
L3.PY/L3.KY/P6E01 (antibody, V domains shown, IgG) VH: EVQLLESGGGLVQPGGSLRLSCAASGFTFGSYAMTWVRQAPGKGLEWVSAISGSGGNTFYADSVKGRFTISRDNSKNTLYLQMNSLRAEDTAVYYCARVSPIASGMDYWGQGTLVTVSS VL: EIVLTQSPGTLSLSPGERATLSCRASQSVSSSYLAWYQQKPGQAPRLLIYGASSRATGIPDRFSGSGSGTDFTLTISRLEPEDFAVYYCKYYPYPPSFTFGQGTKVEIK | – | – | – | – | – | – | – | – | 0.34 nM | 10.7 min | 0.00109 s⁻¹ | 3.18e+06 M⁻¹ s⁻¹ | 2.21 nM | 2.3 min | 0.00502 s⁻¹ | 2.27e+06 M⁻¹ s⁻¹
